Measurements taken from patent US20160115500A1 (University of California, published 2016).

T1: GAL4 activation domain fusion (ACT) to HAB1 (UniProt Q9CAJ0 23-511, limits assumed)
T1 construct: pACT-HAB1 fusion in yeast reporter strains; also called pACT-HAB1
T1 sequence (looked up): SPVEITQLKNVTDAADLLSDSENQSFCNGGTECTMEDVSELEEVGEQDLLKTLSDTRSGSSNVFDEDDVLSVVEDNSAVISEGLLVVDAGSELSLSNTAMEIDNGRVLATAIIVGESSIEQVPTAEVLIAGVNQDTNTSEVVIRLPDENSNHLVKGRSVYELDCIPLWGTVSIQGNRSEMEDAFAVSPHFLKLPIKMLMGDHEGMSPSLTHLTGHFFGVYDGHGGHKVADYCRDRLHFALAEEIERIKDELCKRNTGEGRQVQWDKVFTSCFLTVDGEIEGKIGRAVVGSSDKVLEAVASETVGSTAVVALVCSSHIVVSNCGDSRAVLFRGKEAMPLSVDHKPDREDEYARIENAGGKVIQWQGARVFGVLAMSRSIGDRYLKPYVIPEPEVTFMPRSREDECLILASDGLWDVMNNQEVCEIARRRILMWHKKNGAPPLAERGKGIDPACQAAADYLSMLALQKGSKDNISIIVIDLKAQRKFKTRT


Legend:
[1] = target: T1, GAL4 activation domain fusion (ACT) to …; assay: yeast two-hybrid, X-gal; lowest fludioxonil concentration giving signal
[2] = target: T1, GAL4 activation domain fusion (ACT) to …; assay: yeast two-hybrid, X-gal; lowest mandipropamid concentration giving signal
[3] = target: T1, GAL4 activation domain fusion (ACT) to …; assay: yeast two-hybrid, X-gal; lowest dichlobenil concentration giving signal

| Binder | Threshold [1] [µM] | Threshold [2] [µM] | Threshold [3] [µM] |
| --- | --- | --- | --- |
| PYR1^K59R,E94A (receptor, not shown: small tags and cut ends, pBD-PYR1 fusion in yeast) MPSELTPEERSELKNSIAEFHTYQLDPGSCSSLHAQRIHAPPELVWSIVRRFDKPQTYRHFIKSCSVEQNFEMRVGCTRDVIVISGLPANTSTARLDILDDERRVTGFSIIGGEHRLTNYKSVTTVHRFEKENRIWTVVLESYVVDMPEGNSEDDTRMFADTVVKLNLQKLATVAEAMARNSGDGSGSQVT | 1 | – | – |
| PYR1^K59R,S92F (receptor, not shown: small tags and cut ends, pBD-PYR1 fusion in yeast) MPSELTPEERSELKNSIAEFHTYQLDPGSCSSLHAQRIHAPPELVWSIVRRFDKPQTYRHFIKSCSVEQNFEMRVGCTRDVIVISGLPANTFTERLDILDDERRVTGFSIIGGEHRLTNYKSVTTVHRFEKENRIWTVVLESYVVDMPEGNSEDDTRMFADTVVKLNLQKLATVAEAMARNSGDGSGSQVT | 100 | – | – |
| PYR1^K59R,F108V (receptor, not shown: small tags and cut ends, pBD-PYR1 fusion in yeast) MPSELTPEERSELKNSIAEFHTYQLDPGSCSSLHAQRIHAPPELVWSIVRRFDKPQTYRHFIKSCSVEQNFEMRVGCTRDVIVISGLPANTSTERLDILDDERRVTGVSIIGGEHRLTNYKSVTTVHRFEKENRIWTVVLESYVVDMPEGNSEDDTRMFADTVVKLNLQKLATVAEAMARNSGDGSGSQVT | – | 100 | – |
| PYR1^K59R,E94S (receptor, not shown: small tags and cut ends, pBD-PYR1 fusion in yeast) MPSELTPEERSELKNSIAEFHTYQLDPGSCSSLHAQRIHAPPELVWSIVRRFDKPQTYRHFIKSCSVEQNFEMRVGCTRDVIVISGLPANTSTSRLDILDDERRVTGFSIIGGEHRLTNYKSVTTVHRFEKENRIWTVVLESYVVDMPEGNSEDDTRMFADTVVKLNLQKLATVAEAMARNSGDGSGSQVT | 100 | – | – |
| PYR1^K59R,N167H (receptor, not shown: small tags and cut ends, pBD-PYR1 fusion in yeast) MPSELTPEERSELKNSIAEFHTYQLDPGSCSSLHAQRIHAPPELVWSIVRRFDKPQTYRHFIKSCSVEQNFEMRVGCTRDVIVISGLPANTSTERLDILDDERRVTGFSIIGGEHRLTNYKSVTTVHRFEKENRIWTVVLESYVVDMPEGNSEDDTRMFADTVVKLHLQKLATVAEAMARNSGDGSGSQVT | 100 | – | – |
| PYR1^K59R,E94A,Y120A (receptor, not shown: small tags and cut ends, pBD-PYR1 fusion in yeast) MPSELTPEERSELKNSIAEFHTYQLDPGSCSSLHAQRIHAPPELVWSIVRRFDKPQTYRHFIKSCSVEQNFEMRVGCTRDVIVISGLPANTSTARLDILDDERRVTGFSIIGGEHRLTNAKSVTTVHRFEKENRIWTVVLESYVVDMPEGNSEDDTRMFADTVVKLNLQKLATVAEAMARNSGDGSGSQVT | 10 | – | – |
| PYR1^K59R,F108E (receptor, not shown: small tags and cut ends, pBD-PYR1 fusion in yeast) MPSELTPEERSELKNSIAEFHTYQLDPGSCSSLHAQRIHAPPELVWSIVRRFDKPQTYRHFIKSCSVEQNFEMRVGCTRDVIVISGLPANTSTERLDILDDERRVTGESIIGGEHRLTNYKSVTTVHRFEKENRIWTVVLESYVVDMPEGNSEDDTRMFADTVVKLNLQKLATVAEAMARNSGDGSGSQVT | – | 100 | 100 |
| PYR1^K59R,E94A,N167C (receptor, not shown: small tags and cut ends, pBD-PYR1 fusion in yeast) MPSELTPEERSELKNSIAEFHTYQLDPGSCSSLHAQRIHAPPELVWSIVRRFDKPQTYRHFIKSCSVEQNFEMRVGCTRDVIVISGLPANTSTARLDILDDERRVTGFSIIGGEHRLTNYKSVTTVHRFEKENRIWTVVLESYVVDMPEGNSEDDTRMFADTVVKLCLQKLATVAEAMARNSGDGSGSQVT | 10 | – | – |
| PYR1^K59R,N167V (receptor, not shown: small tags and cut ends, pBD-PYR1 fusion in yeast) MPSELTPEERSELKNSIAEFHTYQLDPGSCSSLHAQRIHAPPELVWSIVRRFDKPQTYRHFIKSCSVEQNFEMRVGCTRDVIVISGLPANTSTERLDILDDERRVTGFSIIGGEHRLTNYKSVTTVHRFEKENRIWTVVLESYVVDMPEGNSEDDTRMFADTVVKLVLQKLATVAEAMARNSGDGSGSQVT | 100 | – | – |
| PYR1^K59R,S122G (receptor, not shown: small tags and cut ends, pBD-PYR1 fusion in yeast) MPSELTPEERSELKNSIAEFHTYQLDPGSCSSLHAQRIHAPPELVWSIVRRFDKPQTYRHFIKSCSVEQNFEMRVGCTRDVIVISGLPANTSTERLDILDDERRVTGFSIIGGEHRLTNYKGVTTVHRFEKENRIWTVVLESYVVDMPEGNSEDDTRMFADTVVKLNLQKLATVAEAMARNSGDGSGSQVT | – | 100 | – |

Results, then the binder that gave them:

| Threshold [1] [µM] | Threshold [2] [µM] | Threshold [3] [µM] | Binder |
| --- | --- | --- | --- |
| – | 0.01 | – | PYR1^Y58H,K59R,V81I,F108A,S122G,V164I (receptor, not shown: small tags and cut ends, pBD-PYR1 fusion in yeast) MPSELTPEERSELKNSIAEFHTYQLDPGSCSSLHAQRIHAPPELVWSIVRRFDKPQTHRHFIKSCSVEQNFEMRVGCTRDIIVISGLPANTSTERLDILDDERRVTGASIIGGEHRLTNYKGVTTVHRFEKENRIWTVVLESYVVDMPEGNSEDDTRMFADTVIKLNLQKLATVAEAMARNSGDGSGSQVT |
| 100 | – | – | PYR1^K59R,V81Y (receptor, not shown: small tags and cut ends, pBD-PYR1 fusion in yeast) MPSELTPEERSELKNSIAEFHTYQLDPGSCSSLHAQRIHAPPELVWSIVRRFDKPQTYRHFIKSCSVEQNFEMRVGCTRDYIVISGLPANTSTERLDILDDERRVTGFSIIGGEHRLTNYKSVTTVHRFEKENRIWTVVLESYVVDMPEGNSEDDTRMFADTVVKLNLQKLATVAEAMARNSGDGSGSQVT |
| 100 | – | – | PYR1^K59R,Y120A (receptor, not shown: small tags and cut ends, pBD-PYR1 fusion in yeast) MPSELTPEERSELKNSIAEFHTYQLDPGSCSSLHAQRIHAPPELVWSIVRRFDKPQTYRHFIKSCSVEQNFEMRVGCTRDVIVISGLPANTSTERLDILDDERRVTGFSIIGGEHRLTNAKSVTTVHRFEKENRIWTVVLESYVVDMPEGNSEDDTRMFADTVVKLNLQKLATVAEAMARNSGDGSGSQVT |
| – | 0.05 | – | PYR1^Y58H,K59R,V81I,F108A,S122G (receptor, pBD-PYR1 fusion in yeast) MPSELTPEERSELKNSIAEFHTYQLDPGSCSSLHAQRIHAPPELVWSIVRRFDKPQTHRHFIKSCSVEQNFEMRVGCTRDIIVISGLPANTSTERLDILDDERRVTGASIIGGEHRLTNYKGVTTVHRFEKENRIWTVVLESYVVDMPEGNSEDDTRMFADTVVKLNLQKLATVAEAMARNSGDGSGSQVT |
| – | 0.05 | – | PYR1^K59R,V81I,F108A,S122G,A160V (receptor, pBD-PYR1 fusion in yeast) MPSELTPEERSELKNSIAEFHTYQLDPGSCSSLHAQRIHAPPELVWSIVRRFDKPQTYRHFIKSCSVEQNFEMRVGCTRDIIVISGLPANTSTERLDILDDERRVTGASIIGGEHRLTNYKGVTTVHRFEKENRIWTVVLESYVVDMPEGNSEDDTRMFVDTVVKLNLQKLATVAEAMARNSGDGSGSQVT |
| – | 0.25 | – | PYR1^Y58H,K59R,F108A,S122G (receptor, pBD-PYR1 fusion in yeast) MPSELTPEERSELKNSIAEFHTYQLDPGSCSSLHAQRIHAPPELVWSIVRRFDKPQTHRHFIKSCSVEQNFEMRVGCTRDVIVISGLPANTSTERLDILDDERRVTGASIIGGEHRLTNYKGVTTVHRFEKENRIWTVVLESYVVDMPEGNSEDDTRMFADTVVKLNLQKLATVAEAMARNSGDGSGSQVT |
| – | 0.002 | – | PYR1^Y58H,K59R,V81I,F108A,S122G,F159L (receptor, not shown: small tags and cut ends, pBD-PYR1 fusion in yeast; also called PYR1^MANDI; pBD-PYR1^MANDI) MPSELTPEERSELKNSIAEFHTYQLDPGSCSSLHAQRIHAPPELVWSIVRRFDKPQTHRHFIKSCSVEQNFEMRVGCTRDIIVISGLPANTSTERLDILDDERRVTGASIIGGEHRLTNYKGVTTVHRFEKENRIWTVVLESYVVDMPEGNSEDDTRMLADTVVKLNLQKLATVAEAMARNSGDGSGSQVT |
| – | 0.01 | – | PYR1^Y58H,K59R,V83L,F108A,S122G (receptor, not shown: small tags and cut ends, pBD-PYR1 fusion in yeast) MPSELTPEERSELKNSIAEFHTYQLDPGSCSSLHAQRIHAPPELVWSIVRRFDKPQTHRHFIKSCSVEQNFEMRVGCTRDVILISGLPANTSTERLDILDDERRVTGASIIGGEHRLTNYKGVTTVHRFEKENRIWTVVLESYVVDMPEGNSEDDTRMFADTVVKLNLQKLATVAEAMARNSGDGSGSQVT |
